For one data set, the system named is hIgG. Briefly: ELISA of soluble fractions of native and mutated WW domains against hIgG. It counts as binding. The settings on record: human IgG, soluble fraction, ABTS. The method, then: The soluble fraction of 100 mL cultures (100 μL) was used for ELISA against hIgG, as described in ([Dias et al., 2025]). Briefly, the target hIgG was immobilized (1 μg/well) in 0.1 M Sodium Bicarbonate pH 8.6 in Immuno Maxisorp ELISA plates (Thermo Fisher), overnight at 4 °C. In the next day, the unbound hIgG was removed, and the wells washed with PBS1x. To the wells was added the blocking solution – 5% (v/v) Soya Milk in PBS 1x and incubated for 1 h at room temperature. The wells were washed and incubated with 100 µL of soluble fraction (∼0.065 mg/mL total protein) at room temperature for 2 h.
The unbound WW domains were removed, and the wells were washed using 4 times PBS1x-0.05% Tween 20 and 1 time with PBS1x. For detection was used 1:1,000 anti-His-HRP conjugated antibody (MA1-21315-HRP, Invitrogen) in 1% (v/v) Soya Milk in PBS1x and incubated for 1 h at RT, after that the wells were washed with 5x PBS1x. The detection occurred with ABTS (2,2′-azino-bis(3-ethylbenzothiazoline-6-sulfonic acid) ready solution (11684302001, Roche), which was incubated in the dark for 1 h at 37 °C. Finally, the results were analysed in a microplate reader (Tecan) with appropriate filter at Abs405nm.
Figure S6 – Production and signal characterization of mutated versions. A – Tris-Tricine gels after cell lysis of the WW prototype sequence (WWp, band at ~8KDa), mutated WWp5_4 scaffold (WWp5_4_M2, band at ~8 kDa) and mutated E6 (E6_M2, band at ~ 12kDa). Samples were normalized 90µg total protein/lane. M - Precision Plus Protein™ Dual Xtra Prestained, Biorad; SF – soluble fraction; ISF – insoluble fraction. B1, B2, and B3 indicate production batchs in 1L culture, except for WWp B1 – 100 mL, WWp_5_4 B2 – 900 mL. Stained with Simplyblue. […] The detection of the clones was made with anti-His conjugated antibody with HRP and detected with ABTS as substrate.
Figure S7 – Comparison between ELISA signal of E6 versus E6_M2. […] The expression levels were detected by direct coating of the microplate well with the soluble fraction of the extract. […] All were detected with ABTS as substrate.
Background: ELISA stands for enzyme-linked immunosorbent assay.

The nature of data set [1]: Solubility / precipitation observed during production, dialysis and purification. It counts as physicochemical. The following applies: for solubility compared with native counterpart E6: IMAC purification without chaotropic agents; for precipitation / solubility after dialysis: dialysis against PBS1x pH 7.4, up to 48 h at 16 °C. The method, then:
Therefore, after expression the soluble fractions were further centrifuged at 42,000 g for 20 min at 4 °C. As the samples were diluted (∼5 mg/mL in 25 mL lysis buffer), the soluble fractions were lyophilized and resuspended in 4 mL of water. The samples were dialyzed (Membranes Spectra Pre-Treated 1 kDa, Carl Roth) to Binding buffer without imidazole (20 mM Sodium Phosphate, 500 mM Sodium Chloride pH 7.4) for 24 h at 16 °C. The samples were quantified by […] (typically ∼6 mg/mL), this solution was diluted 1:2 in Binding buffer (20 mM Sodium Phosphate, 500 mM Sodium Chloride, 20 mM imidazole pH 7.4) and purified in a gravitational flow with 6 mL of resin (IMAC Sepharose 6 Fast Flow (Ni^2+), Cytiva) packed in a PD-10 column. The column was prepared using the indications of the manufacturer. The binding of the protein to the column was maximized by an incubation for 1 h at room temperature in agitation at 40rpm. The resin was washed 4 x column volumes (CV) with binding buffer. The elution as achieved by incubation for 15min with elution buffers. We used a gradient with 3 x CV elution buffer 1 (binding buffer with 100 mM imidazole) and 3 x CV elution buffer 2 (binding buffer with 200 mM imidazole).
The most enriched elutions in WW domains (60%–70% purity) were combined and dialysed against PBS1x (10 mM Na2HPO4, 1.8 mM KH2PO4, 2.7 mM KCl, 137 mM NaCl pH 7.4) with routine changes of buffer up to 48 h at 16 °C. Following the samples were concentrated with a Amicon-Ultra15 3 kDa MWCO (Millipore) with centrifugation conditions 4,900 g, 30 min, 4 °C. The final samples were quantified by BCA assay.
Size Exclusion Chromatography (SEC). The samples were further purified by SEC to achieve 90% purity in a AKTA system (Cytiva). The column Superdex 75 Increase 10/300 GL (29148721, Cytiva) was washed with water and equilibrated 2CV in PBS1x, as described by the manufacturer. As calibrants we prepare a mixture: 2 mg/mL of Bovine Serum Albumin (66 kDa, BP9702-100, FisherScientific), Ovalbumin (42 kDa, A5503-1G, Sigma), Chicken Lysozyme ([…], 62,971–10G-F, Fluka) and hPin1_WW chemically synthesized (5 kDa, produced in ([Dias et al., 2015])) in PBS 1x, this sample was filtered with 0.2 µm PES (514–0073, VWR) and analysed. The operation conditions: flow 0.5 mL/min, 0.05 CV in PBS1x and injection of 250 µL and run for 2 CV with PBS 1x at 16 °C. The same method was used for the WW domain samples. After purifications samples were quantified for total protein by BCA assay, as described previously and used for characterization.

The next data set deals with human IgG. Nature of the data set: Microscale Thermophoresis (MST) with IgG-FITC. It counts as binding. How it is done: For MST assays of E6, IgG was conjugated with fluoresceine isothiocyanate (FITC) using standard protocols. The conjugated IgG-FITC was used at a fixed concentration of 50nM and 16 serial dilutions of E6 protein (from 23.5 µM to 0.7 nM) were made in 50 mM MOPS 0.05% (v/v) Tween-20 pH 7.
For MST assays of E6_M2_T2, the target was hIgG-FITC (F9636, Sigma) at a constant concentration of 25 nM. For the E6_M2_T2 ligand, 16 samples were prepared in variable concentrations starting from 695 nM and using a serial dilution of 1:2 up to a minimum concentration of […] using PBS1x-0.05% (v/v) Tween-20 pH7.4.
Samples were transferred to a standard capillary (Monolith NT.115 Capillary, Nanotemper) with the following settings: medium MST-power, excitation power at 20%, with excitation in Nano-Blue, with thermostat at 25 °C. The signal of the samples was read in triplicates using a Monolith NT.115 (Nanotemper) and the signal was processed in the manufacturer software with FitModel: Kd and Hill. The binding parameters (KD and EC50) and were estimated automatically in the MST software.

Data set [2] has as its target human polyclonal IgG (human). Nature of the data set: ELISA; hIgG immobilised (1 ug/well) in 0.1 M sodium bicarbonate pH 8.6 on Maxisorp plates; blocked with 5% soya milk in PBS; 100 uL soluble fraction (~0.065 mg/mL total protein), 2 h at room temperature; detection with anti-His-HRP and ABTS, Abs 405 nm.
In data set [3] the target is human IgG conjugated with fluorescein isothiocyanate (IgG-FITC) (human). Briefly: MST; hIgG-FITC (Sigma F9636) fixed at 25 nM; 16 samples of E6_M2_T2 from 695 nM in 1:2 serial dilution; PBS, 0.05% Tween-20, pH 7.4; 25 C; fit models Kd and Hill.
The target is the same in data set [4]. Briefly: MST; IgG-FITC fixed at 50 nM; 16 serial dilutions of E6 from 23.5 uM to 0.7 nM; 50 mM MOPS, 0.05% Tween-20, pH 7; 25 C; fit models Kd and Hill.

Experimental findings from publication PMC12647017, “Discovery and optimization of a synthetic small protein domain targeting antibodies” (Frontiers in Bioengineering and Biotechnology, 2025) are described below.

“C S GK LPPGW E E R KTRRFKLG R TYYYNHHILSKTS Q W EH PR G SS [Clone E6_M2, E6 with mutated framework and N-terminal Cys]”: in the data set with hIgG (E6 detected with anti-HA-HRP, E6_M2 and Rosetta extract with anti-His-HRP), the “binding signal relative to negative control (E. coli Rosetta extract)” value was 2 times. Besides, the “binding signal relative to scaffold framework (WWp5_4)” value in the data set on hIgG (anti-His-HRP, Abs405nm) worked out at 2 times. In data set [1], the “solubility compared with native counterpart E6” value was “higher solubility than the native counterpart” and the “precipitation / solubility after dialysis” value is listed as “some precipitation”.

“C S GK LPPGW E E R KTRRFKLG R TYYYNHHILSKTS Q W EH PR G SSS GK LPPGW E E R KTRRFKLG R TYYYNHHILSKTS Q W EH PR G SS [Clone E6_M2_T2]”: the EC50 (in general, the concentration giving half of the maximal effect) in the data set on human IgG (E6_M2_T2, hIgG-FITC 25 nM, ligand from 695 nM 1:2 dilutions, PBS1x-0.05% (v/v) Tween-20 pH 7.4, 25 °C, n = 3) is 157 nM. The Kd – broadly, the constant that tells how readily two partners part at equilibrium – on human IgG (E6_M2_T2, hIgG-FITC 25 nM, ligand from 695 nM 1:2 dilutions, PBS1x-0.05% (v/v) Tween-20 pH 7.4, 25 °C, n = 3, read-out: dissociation constant, KD) came to 62 ± 14 nM. Besides, the “KD relative to KD of E6 native sequence” value on human IgG (human IgG) is “half of the dissociation constant estimated for the E6 native sequence”. In data set [1], the “aggregation compared with the monomeric version” value is listed as “aggregates less than the monomeric version”, the “solubility compared with native counterpart E6” value was “higher solubility than the native counterpart” and the “precipitation / solubility after dialysis” value is “always soluble”. For the same molecule, the “precipitation during size exclusion chromatography” value in data set [1] (Superdex 75 Increase 10/300 GL, PBS1x, 16 °C) was “did not observe any precipitation”. Also, the “stability compared with E6_M2” value in data set [1] (after dialysis and during size exclusion chromatography) is recorded as “more stable”.

As for CSGKLPPGWEERKTRRFKLGRTYYYNHHILSKTSQWEHPRGSS (designed binder) [E6_M2], in data set [2], the ELISA binding signal relative to the negative control (E. coli Rosetta extract) came out at 2 fold and the ELISA binding signal relative to the scaffold framework WWp5 4 is 2 fold.

B1: E6_M2_T2 (head-to-tail dimer of E6_M2) (designed binder)
chain: CSGKLPPGWEERKTRRFKLGRTYYYNHHILSKTSQWEHPRGSSSGKLPPGWEERKTRRFKLGRTYYYNHHILSKTSQWEHPRGSS
In data set [3], B1 displayed an EC50 of 157 nM and a Kd of 62 nM.

In data set [4], SMGLPPGWDEYKTRRFKLGKTYYYNHHILSKTSTWTDPRMSS (designed binder) [E6 (lead ligand, WWp5_4 scaffold), without tag] had a concentration for a half-maximal effect (EC50) of 146 nM and a Kd of 133 nM.

With SMGLPPGWDEYKTRRFKLGKTYYYNHHILSKTSTWTDPRMSS (designed binder) [E6 in pET21a with C-terminal histidine tag], the ELISA binding signal relative to the negative control (E. coli Rosetta extract) in data set [2] turned out to be 1.5 fold.
